Here are results for 2 proteins from PMC4858151, “Phosphorylation of Human Choline Kinase Beta by Protein Kinase A: Its Impact on Activity and Inhibition” (PLoS ONE, 2016).

Where a chain is given by its changes, count along the chain named. In names and notes the source's numbering stands.

For orientation: Km means the substrate concentration at which the rate is half of its maximum. In general, Vmax refers to the top rate of the reaction or transport when substrate is in excess. The kcat is the number of substrate molecules converted per active site and unit of time at saturation. As a reminder, the kcat/Km is the turnover number divided by the Michaelis constant.

Format in all cases: biochemical, Homo sapiens
Substrate in series [1]: C[N+](C)(C)CCO
The series is described as follows: Michaelis-Menten kinetics (Km), PK-LDH coupled assay. As to conditions: MgCl2, ATP choline binding site.

Substrate in series [2]: NCCO
The series is described as above. Particulars: MgCl2, ATP.

Substrate in the series “purified protein”: Nc1ncnc2c1ncn2[C@@H]1O[C@H](COP(=O)(O)OP(=O)(O)OP(=O)(O)O)[C@@H](O)[C@H]1O
The series is described as follows: purified protein. Particulars: MgCl2.

B1: choline kinase beta (CKβ) (Homo sapiens) (protein)
chain: AAEATAVAGSGAVGGCLAKDGLQQSKCPDTTPKRRRASSLSRDAERRAYQWCREYLGGAWRRVQPEELRVYPVSGGLSNLLFRCSLPDHLPSVGEEPREVLLRLYGAILQGVDSLVLESVMFAILAERSLGPQLYGVFPEGRLEQYIPSRPLKTQELREPVLSAAIATKMAQFHGMEMPFTKEPHWLFGTMERYLKQIQDLPPTGLPEMNLLEMYSLKDEMGNLRKLLESTPSPVVFCHNDIQEGNILLLSEPENADSLMLVDFEYSSYNYRGFDIGNHFCEWVYDYTHEEWPFYKARPTDYPTQEQQLHFIRHYLAEAKKGETLSQEEQRKLEEDLLVEVSRYALASHFFWGLWSILQASMSTIEFGYLDYAQSRFQFYFQQKGQLTSVHSSS
notes: purified recombinant unphosphorylated CKβ
With B1, in series [1], the Km turned out to be 420 ± 60 µM, the Vmax turned out to be 64.3 µmol/min/mg, the kcat came out at 48.2 s⁻¹ and the catalytic efficiency (kcat/Km) was found to be 115000 M⁻¹ s⁻¹. For the same protein, in series [2], the Km was found to be 260 ± 10 µM and the Vmax was determined as 14.3 µmol/min/mg. Also, in the series “purified protein”, the Km worked out at 650 ± 30 µM, the Vmax stood at 72.5 µmol/min/mg, the kcat was found to be 21.5 s⁻¹ and the kcat/Km came to 39100 M⁻¹ s⁻¹.

B2: choline kinase beta (CKβ) (Homo sapiens; S39D/S40D) (protein)
chain: B1 chain with S38D, S39D
notes: purified S39D/S40D CKβ
With B2, in series [1], the Km was determined as 460 ± 60 µM, the Vmax was determined as 60.4 µmol/min/mg, the kcat worked out at 45.3 s⁻¹ and the kcat/Km came to 98500 M⁻¹ s⁻¹. Besides, in series [2], the Km is 570 ± 20 µM, the Vmax stood at 28.4 µmol/min/mg, the kcat turned out to be 45.3 s⁻¹ and the kcat/Km was 98500 M⁻¹ s⁻¹. Further, in “purified protein”, the Km worked out at 585.3 ± 30 µM, the maximal velocity (Vmax) was 67.3 µmol/min/mg, the kcat is 21.3 s⁻¹ and the specificity constant (kcat/Km) is 37400 M⁻¹ s⁻¹.
